Literature values, collected in patent publication US20200102349A1, “PEPTIDE REAGENTS AND METHODS FOR DETECTION AND TARGETING OF DYSPLASIA, EARLY CANCER AND CANCER” (THE REGENTS OF THE UNIVERSITY OF MICHIGAN, priority 2014, published 2020).

Test system: mouse xenograft tumor that overexpressesed EGFR
Details: whole body fluorescence imaging

B1: Human recombinant EGF: Human recombinant EGF labeled with IRDye 800 CW (NHS ester) (protein, UniProt P01133 23-1207, looked up)
Pro-epidermal growth factor: PQHWSCPEGTLAGNGNSTCVGPAPFLIFSHGNSIFRIDTEGTNYEQLVVDAGVSVIMDFHYNEKRIYWVDLERQLLQRVFLNGSRQERVCNIEKNVSGMAINWINEEVIWSNQQEGIITVTDMKGNNSHILLSALKYPANVAVDPVERFIFWSSEVAGSLYRADLDGVGVKALLETSEKITAVSLDVLDKRLFWIQYNREGSNSLICSCDYDGGSVHISKHPTQHNLFAMSLFGDRIFYSTWKMKTIWIANKHTGKDMVRINLHSSFVPLGELKVVHPLAQPKAEDDTWEPEQKLCKLRKGNCSSTVCGQDLQSHLCMCAEGYALSRDRKYCEDVNECAFWNHGCTLGCKNTPGSYYCTCPVGFVLLPDGKRCHQLVSCPRNVSECSHDCVLTSEGPLCFCPEGSVLERDGKTCSGCSSPDNGGCSQLCVPLSPVSWECDCFPGYDLQLDEKSCAASGPQPFLLFANSQDIRHMHFDGTDYGTLLSQQMGMVYALDHDPVENKIYFAHTALKWIERANMDGSQRERLIEEGVDVPEGLAVDWIGRRFYWTDRGKSLIGRSDLNGKRSKIITKENISQPRGIAVHPMAKRLFWTDTGINPRIESSSLQGLGRLVIASSDLIWPSGITIDFLTDKLYWCDAKQSVIEMANLDGSKRRRLTQNDVGHPFAVAVFEDYVWFSDWAMPSVMRVNKRTGKDRVRLQGSMLKPSSLVVVHPLAKPGADPCLYQNGGCEHICKKRLGTAWCSCREGFMKASDGKTCLALDGHQLLAGGEVDLKNQVTPLDILSKTRVSEDNITESQHMLVAEIMVSDQDDCAPVGCSMYARCISEGEDATCQCLKGFAGDGKLCSDIDECEMGVPVCPPASSKCINTEGGYVCRCSEGYQGDGIHCLDIDECQLGEHSCGENASCTNTEGGYTCMCAGRLSEPGLICPDSTPPPHLREDDHHYSVRNSDSECPLSHDGYCLHDGVCMYIEALDKYACNCVVGYIGERCQYRDLKWWELRHAGHGQQQKVIVVAVCVVVLVMLLLLSLWGAHYYRTQKLLSKNPKNPYEESSRDVRSRRPADTEDGMSSCPQPWFVVIKEHQDLKNGGQPVAGEDGQAADGSMQPTSWRQEPQLCGMGTEQGCWIPVSSDKGSCPQVMERSFHMPSYGTQTLEGGVEKPHSLLSANPLWQQRALDPPHQMELTQ
modifications: Pro-epidermal growth factor IRDye 800CW label
time of peak signal after injection: 2 days
